Experimental findings from patent publication US11766444B2, “Pharmaceutical composition for preventing or treating degenerative brain disorders including HDL-APOM-S1P as active ingredient” (Kyungpook National University Industry-Academic Cooperation …, priority 2017, dated 2023) are described below.

Common to all, as to type: in vivo, mouse
A short description of series [1]: S1P, ApoM, HDL-S1P and HDL-ApoM levels in plasma of APP/PS1 mice after HDL-ApoM-S1P loading. To be noted: i.v. 25 μl twice a week for 4 weeks (8 times), vs untreated APP/PS1 mice. An excerpt: (§1) Transgenic mice overexpressing hAPP695swe (APPswe) and presenilin-1M146V (PS1) mutations were used as mouse models of the Alzheimer's disease. These are mouse lines produced by GlaxoSmithKline (Harlow, UK) with the standard technology for C57BL background (Charles River, UK), which double heterozygote mutant mice (APP/PS1 tg mice) were produced by backcrossing APPswe mice with pure C57BL/6 backgrounds and crossing PS1 mice
(§2) After collecting blood from mice, the obtained blood was separated into erythrocytes and plasma by centrifugation. The separated erythrocytes are reacted with 10 uM sphingosine at 37° C. for 1 hour, and then reacted for 1 hour at 37° C. after mixing again with the separated plasma. After completion of the reaction, erythrocytes and plasma were separated by centrifugation, and only the plasma was collected again. The plasma thus obtained was loaded with S1P in HDL (HDL-ApoM-S1P loading), which was illustrated in FIG. 1.
The plasma solution thus obtained was intravenously injected 25 μl into mice twice a week for 4 weeks (total 8 times) according to the experimental outline shown in FIG. 2. As a control group, 3 μM S1P (Avanti) and […] ApoM (Mybiosource, SEQ ID NO: 1) were injected intravenously with 25 μl in mice twice a week for 4 weeks (eight times in total).
To collect blood from mouse models (APP/PS1 tg mice or APP/PS1/ApoM tg mice) and normal control mice (WT), the mice were anesthetized first, and 500 μl to 700 μl of blood were collected in heparin tubes (BD Falcon) by cardiac drawing. Each blood sample was then centrifuged at 1,200 rpm for 5 minutes to separate plasma from the supernatant. This plasma sample was stored at −80° C. before being used for analysis.
60 μl of plasma sample was placed in the ultrafast centrifuge tube, and then the same amount of PBS (Gibco) solution was added to form a layer on the plasma. A high speed centrifuge (HITACHI cp100wx Centrifuge P70AT rotor) was used to centrifuge at 70,000 rpm for 3 hours at 4° C. 60 μl of the lower layer of the sample separated into two layers was transferred into a new ultra-centrifuge tube. […]
Extraction and quantification of S1P was performed in the following manner. […] The dried lipid extract was resuspended in 25 μl of 0.2% Igepal CA-630 (Sigma-Aldrich), and the concentration level of each lipid was quantified by the UPLC system using the column ACQUITY BEH Shield RP18 1.7 μm 2.1×50 mm (186002853) and 0.1% of NH4OH.
Using a commercial ELISA kit (CUSABIO Human ApoM ELISA Kit and Mouse ApoM ELISA Kit), the amount of apolipoprotein M (ApoM) contained in the mouse plasma or HDL fractionated therefrom was quantified according to the manufacturer's protocol. […]

Another series deals with amyloid-β. Kind of series: Amyloid-β deposition in brain tissue (cerebral cortex), thioflavin S staining and immunofluorescence. To be noted: APP/PS1 mice, vs 9-month-old untreated APP/PS1 mice.
Excerpt: as §1
(§3) After collecting blood from mice, the obtained blood was separated into erythrocytes and plasma by centrifugation. The separated erythrocytes are reacted with 10 uM sphingosine at 37° C. for 1 hour, and then reacted for 1 hour at 37° C. after mixing again with the separated plasma. […]
(§4) After fixing the cerebral (especially cortex) and hippocampus of mice with 4% paraformaldehyde, the immobilized tissues were incubated with 0.5% thioflavin S (Sigma-Aldrich) or anti-20G10 against Aβ42 (mouse, 1:1000), anti-G30 against Aβ40 (rabbit, 1:1000), anti-lba-1 (rabbit, 1:500, Wako), and anti-GFAP (rabbit, 1:500, DAKO), respectively. […] The sites were analyzed using a laser scanning confocal microscope or Olympus BX51 microscope equipped with Fluoview SV1000 imaging software (Olympus FV1000, Japan). Metamorph software (Molecular Devices) was used to quantify the percentage of area of stained area to area of total tissue. […]

The subject of a further series is tau. Kind of series: Tau deposition in brain tissue (AT8 immunofluorescence). To be noted: APP/PS1 mice, cerebral cortex, vs 9-month-old untreated APP/PS1 mice.
Excerpt: as §1, §3, §4

Another series concerns microglia. Briefly: Activity of microglia (Iba1 staining), neuroinflammatory response. The following applies: APP/PS1 mice, brain tissue, vs untreated APP/PS1 mice.
Excerpt: as §1, §3, §4

In a further series the test system is astrocytes. Briefly: Activity of astrocytes (GFAP staining), neuroinflammatory response. To be noted: APP/PS1 mice, brain tissue, vs untreated APP/PS1 mice.
Excerpt: as §1, §3, §4

The next series has as its system APP/PS1 mice. Kind of series: Morris water maze (MWM) test. To be noted: 10 days training, probe trial day 11.
Excerpt: as §1, §2
The plasma solution thus obtained was intravenously injected 25 μl into mice twice a week for 4 weeks (total 8 times) according to the experimental outline shown in FIG. 2. […]
In order to identify potential effects on learning and memory, Morris water maze (MWM) and fear conditioning experiments were performed according to known methods. […] All experiments were recorded using a charge-coupled device (CCD) camera with video monitor and computer. […]

B1: ApoM: control, ApoM (Mybiosource, SEQ ID NO: 1) (protein)
chain: MFHQIWAALLYFYGIILNSIYQCPEHSQLTTLGVDGKEFPEVHLGQWYFIAGAAPTKEELATFDPVDNIVFNMAAGSAPMQLHLRATIRMKDGLCVPRKWIYHLTEGSTDLRTEGRPDMKTELFSSSCPGGIMLNETGQGYQRFLLYNRSPHPPEKCVEEFKSLTSCLDSKAFLLTPRNQEACELSNN
modifications: ApoM
In the case of B1, in series [1], the “level of ApoM in plasma” value is reported as “did not show a difference”, the “level of HDL-ApoM in the HDL fraction” value is “did not show a difference”, the “level of HDL-S1P in the HDL fraction” value is recorded as “did not show a difference” and the “level of S1P in plasma” value is reported as “did not show a difference”. Also, in the series with amyloid-β, the “Aβ40 deposition in brain tissue” value is on record as “did not show a significant difference” and the “Aβ42 deposition in brain tissue” value was “did not show a significant difference”. Further, the “tau deposition (AT8) in brain tissue” value in the series with tau was “did not show a significant difference”. Moreover, in the series on microglia, the “inflammatory activity of microglia” value is given as “no significant difference”. Also, the “inflammatory activity of astrocytes” value in the series on astrocytes was “no significant difference”. The “learning and memory (spatial memory formation), MWM” value with APP/PS1 mice is listed as “severe impairment”.
